In the FLAb antibody collection:
Positions count from the first letter of the chain named. Values joined by “and” are separate entries in the source; they are usually repeats but may differ in a detail not shown here. Equal entries are not always repeated.

B1: unnamed (protein)
chain 1: EVKLVESGGGLVQPGGSLRLSCATSGFTFTDYYMNWVRQPPGKALEWLGFIGNKANGYTTEYSASVKGRFTISRDKSQSILYLQMNTLRAEDSATYYCTRDRGLRFYFDYWGQGTTLTVSS
chain 2: QTVLSQSPAILSASPGEKVTMTCRASSSVTYIHWYQQKPGSSPKSWIYATSNLASGVPARFSGSGSGTSYSLTISRVEAEDAATYYCQHWSSKPPTFGGGTKLEIK
B2: unnamed (protein)
chain 1: QVQLVQSGVEVKKPGASVKVSCKASGYTFTNYYMYWVRQAPGQGLEWMGGINPSNGGTNFNEKFKNRVTLTTDSSTTTAYMELKSLQFDDTAVYYCARRDYRFDMGFDYWGQGTTVTVSS
chain 2: EIVLTQSPATLSLSPGERATLSCRASKGVSTSGYSYLHWYQQKPGQAPRLLIYLASYLESGVPARFSGSGSGTDFTLTISSLEPEDFAVYYCQHSRDLPLTFGGGTKVEIK
B3: unnamed (protein)
chain 1: EVQLVQSGAEVKKPGESLKISCKGSGYSFTGYNMNWVRQMPGKGLEWMGNIDPYYGGTTYNRKFKGQVTISADKSISTAYLQWSSLKASDTAMYYCARSVGPFDSWGQGTLVTVSS
chain 2: EIVLTQSPATLSLSPGERATLSCRASENVYSYLAWYQQKPGQAPRLLIYFAKTLAEGIPARFSGSGSGTDFTLTISSLEPEDFAVYYCQHHSDNPWTFGQGTKVEIK
B4: unnamed (protein)
chain 1: QVQLQESGPGLVRPSQTLSLTCTASGYTFTDYVIHWVKQPPGRGLEWIGYINPYDDDTTYNQKFKGRVTMLVDTSSNTAYLRLSSVTAEDTAVYYCARRGNSYDGYFDYSMDYWGSGTPVTVSS
chain 2: DIQMTQSPSSLSASVGDRVTITCRASQNVGTAVAWLQQTPGKAPKLLIYSASNRYTGVPSRFSGSGSGTDYTFTISSLQPEDIATYYCQQYTNYPMYTFGQGTKVQIK
B5: unnamed (protein)
chain 1: EVQLVESGGGLVQPGGSLRLSCAASGYTFTSYWLHWVRQAPGKGLEWVGMIDPSNSDTRFNPNFKDRFTISADTSKNTAYLQMNSLRAEDTAVYYCATYRSYVTPLDYWGQGTLVTVSS
chain 2: DIQMTQSPSSLSASVGDRVTITCKSSQSLLYTSSQKNYLAWYQQKPGKAPKLLIYWASTRESGVPSRFSGSGSGTDFTLTISSLQPEDFATYYCQQYYAYPWTFGQGTKVEIK
B6: unnamed (protein)
chain 1: EVQLVESGGGLVQPGGSLRLSCAASGYTFIDYYMNWVRQAPGKGLEWVGDINLDNSGTHYNQKFKGRFTISRDKSKNTAYLQMNSLRAEDTAVYYCAREGVYHDYDDYAMDYWGQGTLVTVSS
chain 2: DIQMTQSPSSLSASVGDRVTITCRTSQSLVHINAITYLHWYQQKPGKAPKLLIYRVSNRFSGVPSRFSGSGSGTDFTLTISSLQPEDFATYYCGQSTHVPLTFGQGTKVEIK
B7: unnamed (protein)
chain 1: EVQLVESGGGLVQPGGSLRLSCAASGYTFTSYNMHWVRQAPGKGLEWVGAIYPGNGDTSYNQKFKGRFTISVDKSKNTLYLQMNSLRAEDTAVYYCARVVYYSNSYWYFDVWGQGTLVTVSS
chain 2: DIQMTQSPSSLSASVGDRVTITCRASSSVSYMHWYQQKPGKAPKPLIYAPSNLASGVPSRFSGSGSGTDFTLTISSLQPEDFATYYCQQWSFNPPTFGQGTKVEIK
B8: unnamed (protein)
chain 1: EVQLVQSGAEVKKPGESLKISCKGSGRTFTSYNMHWVRQMPGKGLEWMGAIYPLTGDTSYNQKSKLQVTISADKSISTAYLQWSSLKASDTAMYYCARSTYVGGDWQFDVWGKGTTVTVSS
chain 2: EIVLTQSPGTLSLSPGERATLSCRASSSVPYIHWYQQKPGQAPRLLIYATSALASGIPDRFSGSGSGTDFTLTISRLEPEDFAVYYCQQWLSNPPTFGQGTKLEIK
B9: unnamed (protein)
chain 1: QVQLVQSGAEVKKPGSSVKVSCKASGYAFSYSWINWVRQAPGQGLEWMGRIFPGDGDTDYNGKFKGRVTITADKSTSTAYMELSSLRSEDTAVYYCARNVFDGYWLVYWGQGTLVTVSS
chain 2: DIVMTQTPLSLPVTPGEPASISCRSSKSLLHSNGITYLYWYLQKPGQSPQLLIYQMSNLVSGVPDRFSGSGSGTDFTLKISRVEAEDVGVYYCAQNLELPYTFGGGTKVEIK
B10: unnamed (protein)
chain 1: EVQLVESGGGLVQPGGSMRLSCVASGFPFSNYWMNWVRQAPGKGLEWVGEIRLKSNNYTTHYAESVKGRFTISRDDSKNSLYLQMNSLKTEDTAVYYCTRHYYFDYWGQGTLVTVSS
chain 2: B9 chain 2 with T7S, L11N, L38F, Y39F, V60A, K79R, Y101P, G105Q
B11: unnamed (protein)
chain 1: QVQLQESGPGLVKPSETLSLTCTVSGGSVSSGDYYWTWIRQSPGKGLEWIGHIYYSGNTNYNPSLKSRLTISIDTSKTQFSLKLSSVTAADTAIYYCVRDRVTGAFDIWGQGTMVTVSS
chain 2: DIQMTQSPSSLSASVGDRVTITCQASQDISNYLNWYQQKPGKAPKLLIYDASNLETGVPSRFSGSGSGTDFTFTISSLQPEDIATYFCQHFDHLPLAFGGGTKVEIK
B12: unnamed (protein)
chain 1: EVQLVESGGGLVQPGRSLRLSCAASGFTFNDYAMHWVRQAPGKGLEWVSTISWNSGSIGYADSVKGRFTISRDNAKKSLYLQMNSLRAEDTALYYCAKDIQYGNYYYGMDVWGQGTTVTVSS
chain 2: EIVLTQSPATLSLSPGERATLSCRASQSVSSYLAWYQQKPGQAPRLLIYDASNRATGIPARFSGSGSGTDFTLTISSLEPEDFAVYYCQQRSNWPITFGQGTRLEIK
B13: unnamed (protein)
chain 1: QLQLQESGPGLVKPSETLSLTCTVSGGSINSSSYYWGWLRQSPGKGLEWIGSFFYTGSTYYNPSLRSRLTISVDTSKNQFSLMLSSVTAADTAVYYCARQSTYYYGSGNYYGWFDRWDQGTLVTVSS
chain 2: B12 chain 2 with I96P, T97A, R103K, L104V
B14: unnamed (protein)
chain 1: EVQLVESGGGLVQPGGSLRLSCAASGYTFTSYVIHWVRQAPGKGLEWVGYNNPYNAGTNYNEKFKGRFTISSDKSKNTAYLQMNSLRAEDTAVYYCSRPTMLPWFAYWGQGTLVTVSS
chain 2: DIQMTQSPSSLSASVGDRVTITCRASQAVSSAVAWYQQKPGKAPKLLIYSASHRYTGVPSRFSGSGSGTDFTLTISSLQPEDFATYYCQESYSTPWTFGQGTKVEIK
B15: unnamed (protein)
chain 1: EVQLVESGGGLVQPGGSLRLSCAASGFNFNDYFMNWVRQAPGKGLEWVAQMRNKNYQYGTYYAESLEGRFTISRDDSKNSLYLQMNSLKTEDTAVYYCARESYYGFTSYWGQGTLVTVSS
chain 2: DIQMTQSPSSLSASVGDRVTITCQASQDIGISLSWYQQKPGKAPKLLIYNANNLADGVPSRFSGSGSGTDFTLTISSLQPEDFATYYCLQHNSAPYTFGQGTKLEIK
B16: unnamed (protein)
chain 1: QVTLRESGPALVKPTQTLTLTCTFSGFSLSTSGMSVGWIRQPPGKALEWLADIWWDDKKDYNPSLKSRLTISKDTSKNQVVLKVTNMDPADTATYYCARSMITNWYFDVWGAGTTVTVSS
chain 2: DIQMTQSPSTLSASVGDRVTITCKCQLSVGYMHWYQQKPGKAPKLLIYDTSKLASGVPSRFSGSGSGTEFTLTISSLQPDDFATYYCFQGSGYPFTFGGGTKLEIK
B17: unnamed (protein)
chain 1: EVQLVQSGPGLVQPGGSVRISCAASGYTFTNYGMNWVKQAPGKGLEWMGWINTYTGESTYADSFKGRFTFSLDTSASAAYLQINSLRAEDTAVYYCARFAIKGDYWGQGTLLTVSS
chain 2: DIQMTQSPSSLSASVGDRVTITCRSTKSLLHSNGITYLYWYQQKPGKAPKLLIYQMSNLASGVPSRFSSSGSGTDFTLTISSLQPEDFATYYCAQNLEIPRTFGQGTKVELK
B18: unnamed (protein)
chain 1: QVQLVQSGAEVKKPGASVKVSCKASGYTFTSYWMHWVRQAPGQGLEWIGNINPSNGGTNYNEKFKSKATMTRDTSTSTAYMELSSLRSEDTAVYYCELMQGYWGQGTLVTVSS
chain 2: DIVMTQSPLSNPVTLGQPVSISCRSSKSLLYKDGKTYLNWFLQRPGQSPQLLIYLMSTRASGVPDRFSGGGSGTDFTLKISRVEAEDVGVYYCQQLVEYPLTFGQGTKLEIK
B19: unnamed (protein)
chain 1: EGQLVQSGGGLVHPGGSLRLSCAGSGFTFSSYGMHWVRQAPGKGLEWVSGIGTGGGTYSTDSVKGRFTISRDNAKNSLYLQMNSLRAEDMAVYYCARGDYYGSGSFFDCWGQGTLVTVSS
chain 2: DIQMTQSPSSLSASVGDRVTITCRASQGISSWLAWYQQKPEKAPKSLIYAASSLQSGVPSRFSGSGSGTDFTLTISSLQPEDFATYYCQQYNSYPPTFGQGTKLEIK

Test: patients with anti-drug antibodies; higher = more immunogenic

For B1, which “patients with anti-drug antibodies” value is on record?
The value was 0.5%.

With B2 as the protein, how does the “patients with anti-drug antibodies” value read?
Its value is 1.7%.

Which “patients with anti-drug antibodies” value does the source give for B3 here?
Its value is 5%.

Which “patients with anti-drug antibodies” value does the source give for B4 here?
Its value is 4.5%.

With B5 as the protein, how does the “patients with anti-drug antibodies” value read?
Its value is 11.9%.

For B6, which “patients with anti-drug antibodies” value is on record?
The value was 4.7%.

Which “patients with anti-drug antibodies” value does the source give for B7 here?
Its value is 1%.

Which “patients with anti-drug antibodies” value does the source give for B8 here?
The value was 1%.

With B9 as the protein, how does the “patients with anti-drug antibodies” value read?
The value was 6% and 6.6%.

Which “patients with anti-drug antibodies” value does the source give for B10 here?
The value was 25% and 9.5%.

With B11 as the protein, how does the “patients with anti-drug antibodies” value read?
The value was 2.8%.

Which “patients with anti-drug antibodies” value does the source give for B12 here?
The value was 0%.

Which “patients with anti-drug antibodies” value does the source give for B13 here?
The value was 3.5%.

For B14, which “patients with anti-drug antibodies” value is on record?
The value was 4.7%.

Which “patients with anti-drug antibodies” value does the source give for B15 here?
The value was 9.8%.

For B16, which “patients with anti-drug antibodies” value is on record?
Its value is 1.1%.

Which “patients with anti-drug antibodies” value does the source give for B17 here?
The value was 40%.

With B18 as the protein, how does the “patients with anti-drug antibodies” value read?
Its value is 2.5%.

With B19 as the protein, how does the “patients with anti-drug antibodies” value read?
Its value is 0%.
